Test results taken from patent US9228020B2, “Compositions and methods for diagnosing and treating cancer” (OncoMed Pharmaceuticals, Inc., priority 2006, dated 2016).
Numbering of substitutions follows the chain as printed.

B1: 21M18 H7L2: humanized 21M18, heavy chain Kabat position 52a serine (H7) with L2; ATCC deposit no. PTA-8425 (antibody, V domains shown)
VH: QVQLVQSGAEVKKPGASVKISCKASGYSFTAYYIHWVKQAPGQGLEWIGYISSYNGATNYNQKFKGRVTFTTDTSTSTAYMELRSLRSDDTAVYYCARDYDYDVGMDYWGQGTLVTVSS
VL: DIVMTQSPDSLAVSLGERATISCRASESVDNYGISFMKWFQQKPGQPPKLLIYAASNQGSGVPDRFSGSGSGTDFTLTISSLQAEDVAVYYCQQSKEVPWTFGGGTKVEIK
B2: 21M18 H9L2: humanized 21M18, heavy chain Kabat position 52a valine (H9) with L2; ATCC deposit no. PTA-8427 (antibody, V domains shown)
VH: B1 VH with S53V
VL: B1 VL

Target: T1, DLL4 antigen (Homo sapiens, UniProt Q9NR61)
T1 construct: DLL4 antigen protein comprises approximately amino acid 27 through amino acid 522; made in house; host or cells: insect cells (baculovirus)
T1 sequence (Q9NR61 27-522): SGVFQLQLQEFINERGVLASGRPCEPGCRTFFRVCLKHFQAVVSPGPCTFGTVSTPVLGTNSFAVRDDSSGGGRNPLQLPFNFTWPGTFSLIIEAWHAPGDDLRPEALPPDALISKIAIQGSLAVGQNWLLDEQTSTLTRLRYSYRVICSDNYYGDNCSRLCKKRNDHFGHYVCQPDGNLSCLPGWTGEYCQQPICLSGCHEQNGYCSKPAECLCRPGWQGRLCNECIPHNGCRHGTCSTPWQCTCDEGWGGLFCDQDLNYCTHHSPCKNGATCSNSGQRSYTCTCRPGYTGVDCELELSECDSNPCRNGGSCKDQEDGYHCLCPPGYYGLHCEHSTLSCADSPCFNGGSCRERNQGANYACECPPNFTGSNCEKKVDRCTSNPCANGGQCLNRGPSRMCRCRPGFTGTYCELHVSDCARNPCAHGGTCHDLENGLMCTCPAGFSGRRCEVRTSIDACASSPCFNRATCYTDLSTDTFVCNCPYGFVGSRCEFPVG
Assay: ELISA of conditioned media for DLL4 antigen binding (humanized variants)
Settings: conditioned media of cotransfected HEK293 cells
Method: The functionality of each candidate variant humanized heavy and light chain was tested by cotransfection into mammalian cells. Each of the five candidate humanized 21M18 heavy chains described above was cotransfected with the murine 21M18 light chain cDNA into HEK 293 cells, and conditioned media was then assayed for DLL4 antigen binding activity by ELISA. […] This variant—“21M18 H2”—contained, in additional to murine CDRs, murine residues at five framework positions, Kabat positions 20, 28, 38, 48, and 69 (FIG. 4). The 21M18 H2 humanized heavy chain was then cotransfected with each of the five candidate humanized light chains into HEK293 cells, and conditioned media was again assayed for antigen binding by ELISA.
Next, the isolated cysteine residue in CDR2H2 (SEQ ID NO: 2) was altered. Specifically, two heavy chain variants of H2 were synthesized with the cysteine residue at Kabat position 52a modified to a serine (variant H7; SEQ ID NO: 3) or a valine (variant H9; SEQ ID NO: 4) residue. These heavy chains were cotransfected into HEK293 cells with L2, and conditioned media was again assayed. […] Thus 21M18 heavy chain CDR2 comprises SEQ ID NO: 2, 3, or 4 in which the residue at Kabat position 52a comprises a cysteine, serine, or valine residue.

Row | Molecule | antigen binding by ELISA
1 | B1 | demonstrated specific antigen binding
2 | B2 | demonstrated specific antigen binding
